Data published in the supplement of paper PMC7877785.
± gives the uncertainty stated by the source.

Assay: self-splicing fitness, log relative to wild type (ln ratio); higher = more splicing; Tetrahymena group I intron in knt gene, E. coli kanamycin selection, DiMSum; sequences stand for … in CUCUCU…GGAGGGAAAAGUUAUCAGGCAUGCACCUGGUAGCUAGUCUUUAAACCAAUAGAUUGCAUCGGUUUAAAAGGCAAGACCGUCAAAUUGCGGGAAAGGGGUCAACAGCCGUUCAGUACCAAGUCUCAGGGGAAACUUUGAGAUGGCCUUGCAAAGGGUAUGGUAAUAAGCUGACGGACAUGGUCCUAACCACGCAGCCAAGUCCUAAGUCAACAGAUCUUCUGUUGAUAUGGAUGCAGUUCACAGACUAAAUGUCGGUCGGGGAAGAUGUAUUCUUCUCAUAAGAUAUAGUCGGACCUCUCCUUAAUGGGAGCUAGCGGAUGAAGUGAUGCAACACUGGAGCCGCUGGGAACUAAUUUGUAUGCGAAAGUAUAUUGAUUAGUUUUGGAGUACUCGUGGUCG
In short: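 Pooled colonies went to amplicon sequencing on an Illumina HiSeq 2500 after six replicate transformations. The plates were LB agar with 100 μg/mL carbenicillin, 50 μM IPTG and 0.2% rhamnose, with or without 25 μg/mL kanamycin, incubated overnight at 37°C or 30°C. The E. coli BL21(DE3) library had all eight P1ex-region intron nucleotides randomised, the intron placed in the knt kanamycin-resistance gene on pET-22b(+). DiMSum fitness is the error-weighted combination of replicate fold changes, kanamycin against none, normalised to wild type.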

Sequence | self-splicing fitness (ln) (37 °C) | self-splicing fitness (ln) (30 °C)
UAAGAGCAAUAUUACGAGAA | -1.68 ± 0.46 | 
AGCUAGCAAUAUUACGAACA | -0.832 ± 0.2 | -2.24 ± 0.23
GCAUAGCAAUAUUACGUCCG | -0.899 ± 0.13 | -1.44 ± 0.081
UUCUAGCAAUAUUACGAUGA | -0.0657 ± 0.2 | -0.819 ± 0.19
CUGGAGCAAUAUUACGUCUC | -1.16 ± 0.36 | -2.68 ± 0.33
CCUCAGCAAUAUUACGUGAC | -2.66 ± 0.24 | -3.76 ± 0.22
UUCCAGCAAUAUUACGAGUU | -1.6 ± 0.092 | -3.21 ± 0.13
UAAUAGCAAUAUUACGUUUC | -1.35 ± 0.23 | -2.95 ± 0.45
GGAUAGCAAUAUUACGCUCA | -0.278 ± 0.15 | 0.156 ± 0.15
GCUGAGCAAUAUUACGAGUG | -1.2 ± 0.17 | -0.948 ± 0.14
UCACAGCAAUAUUACGUGUU | -2.46 ± 0.11 | -3.9 ± 0.13
GUCAAGCAAUAUUACGGUAU | -0.662 ± 0.085 | -1.54 ± 0.075
GGAUAGCAAUAUUACGUAAC | -0.538 ± 0.16 | -1.66 ± 0.15
AAAGAGCAAUAUUACGCAAG | -3.51 ± 0.36 | -3.4 ± 0.19
GGUCAGCAAUAUUACGGACU |  | -1.49 ± 0.44
AGGUAGCAAUAUUACGCCCG | -0.122 ± 0.04 | -0.077 ± 0.022
GUCGAGCAAUAUUACGUGCA | -0.701 ± 0.17 | -2.29 ± 0.22
AACUAGCAAUAUUACGGUGG | -0.926 ± 0.086 | -2.14 ± 0.079
AGCCAGCAAUAUUACGGAUA | -1.51 ± 0.12 | -1.63 ± 0.11
CUAUAGCAAUAUUACGUUCA | -2.93 ± 0.35 | -2.87 ± 0.24
GCAAAGCAAUAUUACGUCCU | 0.035 ± 0.12 | -0.435 ± 0.1
UUACAGCAAUAUUACGGCCA | 0.128 ± 0.13 | -1.02 ± 0.12
UAGCAGCAAUAUUACGAACG | 0.327 ± 0.085 | -0.486 ± 0.06
CAGUAGCAAUAUUACGAGAC | -1.31 ± 0.28 | -3.08 ± 0.24
AGCCAGCAAUAUUACGUUUA | -2.48 ± 0.38 | -2.7 ± 0.35

Sequence | self-splicing fitness (ln) (37 °C) | self-splicing fitness (ln) (30 °C)
UUCCAGCAAUAUUACGUUGU | -2.74 ± 0.27 | -2.93 ± 0.21
UCCGAGCAAUAUUACGCCGU |  | -2.21 ± 0.22
CCCUAGCAAUAUUACGUAAU | -2.83 ± 0.25 | -3.5 ± 0.22
AUUUAGCAAUAUUACGAUCC | -0.408 ± 0.23 | -0.5 ± 0.4
GACUAGCAAUAUUACGCUUA | -0.7 ± 0.14 | -0.282 ± 0.17
CACAAGCAAUAUUACGAUCA | -1.55 ± 0.12 | -2.43 ± 0.11
AUUAAGCAAUAUUACGUGUU | -0.83 ± 0.098 | -2.6 ± 0.11
AAGGAGCAAUAUUACGGAAG | -1.63 ± 0.25 | -3.7 ± 0.34
UACCAGCAAUAUUACGAUAU | -1.32 ± 0.12 | -2.78 ± 0.12
GGUGAGCAAUAUUACGGCGU | -0.494 ± 0.17 | -1.29 ± 0.14
UUUGAGCAAUAUUACGCGAC |  | -2.15 ± 0.35
ACCCAGCAAUAUUACGGAUC | -1.16 ± 0.089 | -2.82 ± 0.085
AGGGAGCAAUAUUACGUCUA | -2.26 ± 0.21 | -2.54 ± 0.21
CGGUAGCAAUAUUACGUGCU | -2.51 ± 0.29 | -3.24 ± 0.28
CCCAAGCAAUAUUACGUACC | -1.82 ± 0.28 | 
AUCGAGCAAUAUUACGUACU | -0.28 ± 0.17 | -1.09 ± 0.15
ACGUAGCAAUAUUACGUACU | -2 ± 0.14 | -1.11 ± 0.11
UUGAAGCAAUAUUACGUGGA | -1.6 ± 0.14 | -2.33 ± 0.11
AGAUAGCAAUAUUACGCAUC | -1.91 ± 0.36 | -1.84 ± 0.3
AUCAAGCAAUAUUACGAAAU | -1.04 ± 0.092 | -2.09 ± 0.078
AAAGAGCAAUAUUACGUCAC | -2.76 ± 0.31 | -2.56 ± 0.5
CUGUAGCAAUAUUACGUAAU | -3.29 ± 0.37 | -3.88 ± 0.3
CGGAAGCAAUAUUACGAUUA | -1.56 ± 0.16 | -1.17 ± 0.18
ACUUAGCAAUAUUACGCCGA | -1.35 ± 0.15 | -2.94 ± 0.21
